In patent US12180485B2, “Repressible control of gene expression” (TRUSTEES OF BOSTON UNIVERSITY, priority 2020, dated 2024):

B1: SEQ ID NO: 392: PV1-Cas13 N507-L1-PYL-NLS-BGHpA (protein)
chain: MIEKKKSFAKGMGVKSTLVSGSKVYMTTFAEGSDARLEKIVEGDSIRSVNEGEAFSAEMADKNAGYKIGNAKFSHPKGYAVVANNPLYTGPVQQDMLGLKETLEKRYFGESADGNDNICIQVIHNILDIEKILAEYITNAAYAVNNISGLDKDIIGFGKFSTVYTYDEFKDPEHHRAAFNNNDKLINAIKAQYDEFDNFLDNPRLGYFGQAFFSKEGRNYIINYGNECYDILALLSGLRHWVVHNNEEESRISRTWLYNLDKNLDNEYISTLNYLYDRITNELTNSFSKNSAANVNYIAETLGINPAEFAEQYFRFSIMKEQKNLGFNITKLREVMLDRKDMSEIRKNHKVFDSIRTKVYTMMDFVIYRYYIEEDAKVAAANKSLPDNEKSLSEKDIFVINLRGSFNDDQKDALYYDEANRIWRKLENIMHNIKEFRGNKTREYKKKDAPRLPRILPAGRDVSAFSKLMYALTMFLDGKEINDLLTTLINKFDNIQSFLKVMPLIGVNSGGSGSGSSGGSGTAPTQDEFTQLSQSIAEFHTYQLGNGRCSSLLAQRIHAPPETVWSVVRRFDRPQIYKHFIKSCNVSEDFEMRVGCTRDVNVISGLPANTSRERLDLLDDDRRVTGFSITGGEHRLRNYKSVTTVHRFEKEEEEERIWTVVLESYVVDVPEGNSEEDTRLFADTVIRLNLQKLASITEAMNYPYDVPDYAPKKKRKV
B2: SEQ ID NO: 793: inducible system polypeptide, probably Table 20 (GID-GAI) (protein)
chain: MLDLASLILIEKKKSFAKGMGVKSTLVSGSKVYMTTFAEGSDARLEKIVEGDSIRSVNEGEAFSAEMADKNAGYKIGNAKFSHPKGYAVVANNPLYTSGGSGSGSSGGSGTMAASDEVNLIESRTVVPLNTWVLISNFKVAYNILRRPDGTFNRHLAEYLDRKVTANANPVDGVFSFDVLIDRRINLLSRVYRPAYADQEQPPSILDLEKPVDGDIVPVILFFHGGSFAHSSANSAIYDTLCRRLVGLCKCVVVSVNYRRAPENPYPCAYDDGWIALNWVNSRSWLKSKKDSKVHIFLAGDSSGGNIAHNVALRAGESGIDVLGNILLNPMFGGNERTESEKSLDGKYFVTVRDRDWYWKAFLPEGEDREHPACNPFSPRGKSLEGVSFPKSLVVVAGLDLIRDWQLAYAEGLKKAGQEVKLMHLEKATVGFYLLPNNNHFHNVMDEISAFVNAECLDLASLIL
B3: SEQ ID NO: 792: inducible system polypeptide, probably Table 20 (GID-GAI) (protein)
chain: MAPKKKRKVGIHGVPAAKRDHHHHHHQDKKTMMMNEEDDGNGMDELLAVLGYKVRSSEMADVAQKLEQLEVMMSNVQEDDLSQLATETVHYNPAELYTWLDSMLTDLNSGGSGSGSSGGSGTGPVQQDMLGLKETLEKRYFGESADGNDNICIQVIHNILDIEKILAEYITNAAYAVNNISGLDKDIIGFGKFSTVYTYDEFKDPEHHRAAFNNNDKLINAIKAQYDEFDNFLDNPRLGYFGQAFFSKEGRNYIINYGNECYDILALLSGLRHWVVHNNEEESRISRTWLYNLDKNLDNEYISTLNYLYDRITNELTNSFSKNSAANVNYIAETLGINPAEFAEQYFRFSIMKEQKNLGFNITKLREVMLDRKDMSEIRKNHKVFDSIRTKVYTMMDFVIYRYYIEEDAKVAAANKSLPDNEKSLSEKDIFVINLRGSFNDDQKDALYYDEANRIWRKLENIMHNIKEFRGNKTREYKKKDAPRLPRILPAGRDVSAFSKLMYALTMFLDGKEINDLLTTLINKFDNIQSFLKVMPLIGVNAKFVEEYAFFKDSAKIADELRLIKSFARMGEPIADARRAMYIDAIRILGTNLSYDELKALADTFSLDENGNKLKKGKHGMRNFIINNVISNKRFHYLIRYGDPAHLHEIAKNEAVVKFVLGRIADIQKKQGQNGKNQIDRYYETCIGKDKGKSVSEKVDALTKIITGMNYDQFDKKRSVIEDTGRENAEREKFKKIISLYLTVIYHILKNIVNINARYVIGFHCVERDAQLYKEKGYDINLKKLEEKGFSSVTKLCAGIDETAPDKRKDVEKEMAERAKESIDSLESANPKLYANYIKYSDEKKAEEFTRQINREKAKTALNAYLRNTKWNVIIREDLLRIDNKTCTLFRNKAVHLEVARYVHAYINDIAEVNSYFQLYHYIMQRIIMNERYEKSSGKVSEYFDAVNDEKKYNDRLLKLLCVPFGYCIPRFKNLSIEALFDRNEAAKFDKEKKKVSGNSGSGPKKKRKV
B4: SEQ ID NO: 796: inducible system polypeptide, probably Table 20 (GID-GAI) (protein)
chain: MAPKKKRKVGIHGVPAAKRDHHHHHHQDKKTMMMNEEDDGNGMDELLAVLGYKVRSSEMADVAQKLEQLEVMMSNVQEDDLSQLATETVHYNPAELYTWLDSMLTDLNSGGSGSGSSGGSGTSYDELKALADTFSLDENGNKLKKGKHGMRNFIINNVISNKRFHYLIRYGDPAHLHEIAKNEAVVKFVLGRIADIQKKQGQNGKNQIDRYYETCIGKDKGKSVSEKVDALTKIITGMNYDQFDKKRSVIEDTGRENAEREKFKKIISLYLTVIYHILKNIVNINARYVIGFHCVERDAQLYKEKGYDINLKKLEEKGFSSVTKLCAGIDETAPDKRKDVEKEMAERAKESIDSLESANPKLYANYIKYSDEKKAEEFTRQINREKAKTALNAYLRNTKWNVIIREDLLRIDNKTCTLFRNKAVHLEVARYVHAYINDIAEVNSYFQLYHYIMQRIIMNERYEKSSGKVSEYFDAVNDEKKYNDRLLKLLCVPFGYCIPRFKNLSIEALFDRNEAAKFDKEKKKVSGNSGSGPKKKRKV
B5: SEQ ID NO: 769: inducible system polypeptide, probably Table 20 (GID-GAI) (protein)
chain: MIEKKKSFAKGMGVKSTLVSGSKVYMTTFAEGSDARLEKIVEGDSIRSVNEGEAFSAEMADKNAGYKIGNAKFSHPKGYAVVANNPLYTGPVQQDMLGLKETLEKRYFGESADGNDNICIQVIHNILDIEKILAEYITNAAYAVNNISGLDKDIIGFGKFSTVYTYDEFKDPEHHRAAFNNNDKLINAIKAQYDEFDNFLDNPRLGYFGQAFFSKEGRNYIINYGNECYDILALLSGLRHWVVHNNEEESRISRTWLYNLDKNLSGGSGSGSSGGSGTMAASDEVNLIESRTVVPLNTWVLISNFKVAYNILRRPDGTFNRHLAEYLDRKVTANANPVDGVFSFDVLIDRRINLLSRVYRPAYADQEQPPSILDLEKPVDGDIVPVILFFHGGSFAHSSANSAIYDTLCRRLVGLCKCVVVSVNYRRAPENPYPCAYDDGWIALNWVNSRSWLKSKKDSKVHIFLAGDSSGGNIAHNVALRAGESGIDVLGNILLNPMFGGNERTESEKSLDGKYFVTVRDRDWYWKAFLPEGEDREHPACNPFSPRGKSLEGVSFPKSLVVVAGLDLIRDWQLAYAEGLKKAGQEVKLMHLEKATVGFYLLPNNNHFHNVMDEISAFVNAECPKKKRKV
B6: SEQ ID NO: 770: inducible system polypeptide, probably Table 20 (GID-GAI) (protein)
chain: MKRDHHHHHHQDKKTMMMNEEDDGNGMDELLAVLGYKVRSSEMADVAQKLEQLEVMMSNVQEDDLSQLATETVHYNPAELYTWLDSMLTDLNSGGSGSGSSGGSGTDNEYISTLNYLYDRITNELTNSFSKNSAANVNYIAETLGINPAEFAEQYFRFSIMKEQKNLGFNITKLREVMLDRKDMSEIRKNHKVFDSIRTKVYTMMDFVIYRYYIEEDAKVAAANKSLPDNEKSLSEKDIFVINLRGSFNDDQKDALYYDEANRIWRKLENIMHNIKEFRGNKTREYKKKDAPRLPRILPAGRDVSAFSKLMYALTMFLDGKEINDLLTTLINKFDNIQSFLKVMPLIGVNAKFVEEYAFFKDSAKIADELRLIKSFARMGEPIADARRAMYIDAIRILGTNLSYDELKALADTFSLDENGNKLKKGKHGMRNFIINNVISNKRFHYLIRYGDPAHLHEIAKNEAVVKFVLGRIADIQKKQGQNGKNQIDRYYETCIGKDKGKSVSEKVDALTKIITGMNYDQFDKKRSVIEDTGRENAEREKFKKIISLYLTVIYHILKNIVNINARYVIGFHCVERDAQLYKEKGYDINLKKLEEKGFSSVTKLCAGIDETAPDKRKDVEKEMAERAKESIDSLESANPKLYANYIKYSDEKKAEEFTRQINREKAKTALNAYLRNTKWNVIIREDLLRIDNKTCTLFRNKAVHLEVARYVHAYINDIAEVNSYFQLYHYIMQRIIMNERYEKSSGKVSEYFDAVNDEKKYNDRLLKLLCVPFGYCIPRFKNLSIEALFDRNEAAKFDKEKKKVSGNSGSGPKKKRKV

The molecules below were run on mCherry expression in HEK293 FT cells (assay: Inducible split RfxCas13d (GIB, RAP, ABA, Dano, GRZ CID domains; NES/NLS variants) mCherry knockdown, leakiness and inducibility). Conditions: inducible polypeptide systems of Tables 18-22.
Format: cell-based
From the text: FIG. 6A-6C is a series of schematics and graphs showing that split RfxCas13d's reconstituted and functioned to knockdown mCherry expression in HEK293 FT cells FIG. 6A is a schematic showing split sites selected throughout RfxCas13d sequence. FIG. 6B is a bar graph showing mCherry expression under 4 conditions for gibberellin-inducible, rapalog-inducible, and abscisic acid-inducible inducible split Cas13d designs. In FIG. 6B and FIG. 6C, the left-right order of the bars for each split site is the same as the left-right order of the legend for each bar graph.
FIG. 7A-7E is a series of schematics and graphs showing a functional and inducible split Cas13d design. FIG. 7A is a bar graph showing additional split sites selected in RfxCas13d and tested with GIB CID domains. […] In FIG. 7A and FIG. 7C, the left-right order of the bars for each split site is the same as the left-right order of the legend. FIG. 7B is a schematic showing the design to compartmentalize splits. Compartmentalizing moieties facilitates the reduction of leakiness. […] FIG. 7D is a schematic showing the experiment flow for testing reversibility of the inducible split Cas13d's.
FIG. 8A-8B is a series of schematics and graphs showing that split RfxCas13d's reconstituted upon drug-induced dimerization and knocked down mCherry expression in HEK293 FT cells. FIG. 8A is a bar graph showing quantification of system performance. The left-right order of the bars for each split site is the same as the top-down order of the legend. […] System performance in leakiness score (left axis) and induced activity (right axis) by GIB, RAP, ABA, and Dano-inducible split Cas13d designs.
FIG. 10A-10B is a series of schematics and graphs showing performance optimization through separating split Cas13d moieties in different cellular compartments. […] The left-right order of the bars for each bar graph is the same as the top-down order of the legend.
FIG. 11 is a series of schematics and graphs showing the testing of reversed orientation (dark grey dots) of CID domains with respect to split Cas13d pieces against original orientations (light grey dots) designed for GIB, ABA, Dano, and GRZ inducible systems.
B1 was tested, and the “performance in the tested conditions” value was “highest performance”. B2 was tested, and the “performance in the tested conditions” value was “highest performance”. With B3 the “performance in the tested conditions” value was “highest performance”. With B4 the “performance in the tested conditions” value was “highest performance”. For B5, the “performance in the tested conditions” value was “highest performance”. B6 was tested, and the “performance in the tested conditions” value was “highest performance”.
